Source: patent publication US20260234269A1

Assays:
[1] = biological target: human Gal9 protein (R&D systems) (human) (UniProt O00182); experiment: ELISA, hGal9 coated, mTIM-3 Fc with or without 25 mM lactose
[2] = biological target: mouse Gal3 on mouse cells (B16F10 tumor cells, RAW264.7 macrophages) (mouse) (UniProt P16110); experiment: flow cytometry, B16F10 cells
Chain of mouse Gal3 on mouse cells (B16F10 tumor cells, RAW264.7 macrophages) (mouse) (P16110 2-264): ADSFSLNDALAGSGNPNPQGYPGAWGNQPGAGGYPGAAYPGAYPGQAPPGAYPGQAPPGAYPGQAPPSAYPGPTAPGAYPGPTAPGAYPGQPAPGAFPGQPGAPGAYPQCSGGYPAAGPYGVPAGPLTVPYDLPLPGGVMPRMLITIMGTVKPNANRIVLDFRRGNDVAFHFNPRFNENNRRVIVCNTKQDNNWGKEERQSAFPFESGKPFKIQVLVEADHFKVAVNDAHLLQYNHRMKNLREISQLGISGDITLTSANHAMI

Chain of human Gal9 protein (R&D systems) (human) (O00182 other isoform, or with tags, fused parts or gaps limits assumed): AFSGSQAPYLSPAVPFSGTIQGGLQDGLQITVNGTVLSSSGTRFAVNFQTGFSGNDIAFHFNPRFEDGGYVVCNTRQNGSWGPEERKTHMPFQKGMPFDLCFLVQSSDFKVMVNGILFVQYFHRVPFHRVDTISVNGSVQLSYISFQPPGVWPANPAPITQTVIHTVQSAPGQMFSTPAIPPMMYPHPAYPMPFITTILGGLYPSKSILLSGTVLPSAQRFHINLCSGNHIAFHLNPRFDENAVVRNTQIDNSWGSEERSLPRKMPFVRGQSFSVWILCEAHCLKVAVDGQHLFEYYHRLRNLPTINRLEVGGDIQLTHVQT

With “mouse TIM-3 Fc protein (R&D systems) (from UniProt Q8VIM0 20-191) (Fc fusion)” the fold reduction in signal with 25 mM lactose [1] was > 10 fold.

For “rat anti mouse Gal3 PE antibody (Thermo Fisher Scientific)”, the MFI, fold over isotype control antibody [2] was 10 fold.
